Source: article PMC3351461

How the values were obtained:
[1] = target: Wnt3a (human (endogenous in H322 and H460)) (UniProt P56704)
[2] = target: Wnt3a (human (endogenous in H322 and H460)) (UniProt P56704); remark: listed apart in the source

Chain of UniProt P56704 (P56704 19-352): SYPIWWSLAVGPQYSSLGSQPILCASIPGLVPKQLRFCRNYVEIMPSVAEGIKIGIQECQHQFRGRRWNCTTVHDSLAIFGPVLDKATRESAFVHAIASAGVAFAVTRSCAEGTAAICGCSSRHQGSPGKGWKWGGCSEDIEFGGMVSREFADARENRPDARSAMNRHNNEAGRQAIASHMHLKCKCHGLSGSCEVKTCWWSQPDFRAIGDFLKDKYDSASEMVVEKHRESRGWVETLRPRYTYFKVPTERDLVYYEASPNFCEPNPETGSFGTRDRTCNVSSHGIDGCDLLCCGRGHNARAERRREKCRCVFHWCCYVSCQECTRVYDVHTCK

TOPflash luciferase activity in H322 cells with recombinant Wnt3a (100 ng/ml), lower in dE1-k35/sLRP6E1E2-transduced than in dE1-k35/LacZ-transduced cells [1]: 52% | TOPflash luciferase activity in H322 cells without added Wnt3a, reduction by dE1-k35/sLRP6E1E2 compared with dE1-k35/LacZ [1]: 12% | TOPflash luciferase activity in H460 cells with recombinant Wnt3a (100 ng/ml), lower in dE1-k35/sLRP6E1E2-transduced than in dE1-k35/LacZ-transduced cells [1]: 48% | TOPflash luciferase activity in H460 cells without added Wnt3a, reduction by dE1-k35/sLRP6E1E2 compared with dE1-k35/LacZ [1]: 48% | nuclear beta-catenin (immunofluorescence, quantified) in H322 cells with Wnt3a, decrease in dE1-k35/sLRP6E1E2-transduced cells compared with dE1-k35/LacZ [2]: 98.1%
Substance: soluble LRP6 receptor (sLRP6E1E2) (domain or fragment)
